From a protein production outcome set (Wang et al. 2014)

Test: label from the status in PepcDB records

Sequence | protein production
MNAPEIAAFKAERREPDKTDVDKLTGELDIRSEIWLIFDDLSTILEDQHFADKGVELLFSSLRYNTHNAKIIVTSRIVPIFENGESLIDVVEDEEKQNLKGLRKDYAVDYLVSNGLDKVEHEKLEELATGVDGHPLALKLLVELVKEFGVKDTLEDLSMYQESKDDTIKKARRLFDKLAGEEKELLESISVYREPVDMKGLREMFTLNTPKNAVKKLTDKSLLENDHNGSYWLHPLVQEFSYKDLKNKKEAHILAVKYCLSLPLPENPTKKGDVQPLIEAHYHTCAAKEYDAAAEIIFHFKLYEMLERWGNYNTLIELYEGVLPKSHFEDEPLLKNKEFHISILGNLGNVYTVLNEGKKAIQYHEKVVELNKGATNKFNEIISISNIGLFYFQQGMMKKAIECFEQTLKISNHDNQKGISGANLGNIGLVYLQIGEPKKAIQYFEKSLPLLKEANDKRREGANLGHMGMAYLQLNEAKEAVQCIQQSMYIAEEINDKRSIGNCFGNMGIIHSFFGEMKEALESYEQALSIAKEIDDRCNLGNWLGNKGRVYFDSGEIEKAIEFYKHALRIAKEINDVVREGLWIENLGQAFSYQGEFKKAIEYYEQALKISREIGNISAEGNLLENMGLAYYSLGEPRKAIEFLKESLAIRKAIEDPKIIGFCEQKLKELKGYDE | failed
MSEVLTRGFRFRPADEEVTDYLMRKTQSPEFSCFIKTIDLYDKDPWVLGHVRDPCYNHYEWYYFVKKNPLGNEYLDKPRLNGFEHPRLKWDVLKQIHDALSSGQNVPPSVFTYGFRFHPTDQELLSLYLTPKAHSPDFSCFIRERESYMPWSHGFLNMLDLLFTRTVNGTTL | failed
MGFLVPSEITVSEFLLDFLNKYSENISLATYNNYVSICKNYINPSIGKYKIQDLHPVHIQNYIDKLSYKLNPQSIKIHINILKLAIKRAYRLKLIKENVMDSIKAPLEHHHHHH | failed
MKIAIFRTSGVIAPFVIDGYITGFREAGHEVWGIDLTTEGLDFTKLRSFQPDFVLAYGYNGFCKSPNGYALRELGIPLVSLHYDCPYLARNDGLSDEINNFPEYYYEFVWDDSFLELLRNDGTENCDHILLATDPTWFHPIALDSPCIESSVCFVGGVSAHVEQNCVGIELVDKFIDEVIYSKLHNMEVPTFEICKQFFSTPEYRAVHQVYTTEPASFWQMIYYKIHGKGSTVMRKYILDSIEGVDLHIYGGGNGWDKPNAIFHEKVPYGTELSKAFQQYALNLNISSLQLEKAINNRPFDAYASKAFMLNDYRDDMIRAFPAHWEEITFRNLDEFAEKGEYFLTHAQERRELVADLYDHTLRHHTYRHRADQIVEKLAAINFLNRPQQPKTQTSRSILAIDEDNYADYCKDLNTCPVCGGTEFNLKFSFLGHEDYKSTFDQCMDCQAVFLNPCPTDEYLTKFYNEIYYSPQHRQKMGWDPNLDTPNPNSFFLHQRRMDFVEKYVPEELKFPRGKLLDIGCSTGAFLWEASLRYWDVCGIEISDKAAEVAREKYGLAVTTGTLLESSFDDETFDVVTAWDVLEHIANPAPFLTILRRILKQGGLILLNTPNINSADAAYAGEQWRHLDAPLHPVLYDFISIRILLKKYGFQCLEVSSGDEYHGQMKIAARKA | failed
MFRRPRLRALSALVLAALTLPAVAQQVLIRGATVHTATSQGTLRNTDVLVQGGVIRAIGTGLAVPTHGRVVEAKGRPLTPALFGGITEIGIEEVSGEAATVDSGVKLTEQPMRPEFDVTLAYNPDSVLIPVARVEGIGFTALGATTSGAFIAGQGGIVRLDGGPDPVGPHALFVRLGAAASDLTGSSRAAQWMLLDQLVAEARGRVPADSPHALLTPVGRSVLANYLAGRGRIVVQVERAADIRQLLRWAQREKVRIAIAGGTEAWKLAPQLAQAKVPVLVDALADLPSTFDQIGATLENAARLRAAGVEVSFTQSGDASHNARKLRQLAGNAVANGLPWESGLAGLTRVPAEIFGVGDRIGSIAVGKQADLVLWDGDPLDVAHYAEQVWMGGRDMPMRSRQTDLRDRYLQQAGPLPRAYQR | failed
VENLKAQALCSWTAKKDNHLNFSKHDIITVLEQQENWWFGEVHGGRGWFPKSYVKIIPGSE | not failed
MSSQLNHGTLPKISIVTPSYNQAQYLEATMRSILDQGYPDLEYIVMDGGSTDGSTEIIQKYSDRLTYWESAPDKGQADAIFRGFERATGEIFCYVNSDDLLLPGSLEMVGRWFREHPDEEWVVGGTILIDGLGIPIIRSRRGLPEADLGVKVTFKRLLLHNCGGFHQPASFWRRSAFEQAGGFDRTLRFCFDYDLFFRLAKRRPSGRIRSFLAAFRYHPASKTSTLESVFREENETLWRRYGRYLYSENQIRNFAHKQTTRDMWNNRIIKLGFYLKILNVSNAIGSLEHHHHHH | not failed
MMTLVILLLFLLFCVLVFWISITFSIKYVLIFTAFLFSGLLVYYSFLTLAGLVHRSRKQKDRTLEHYPSVDILIPAHNEGVVIKDTLEAMAKIEYPGKLTVYLLNDNSQDETPEIGDDFDKAYAHIRHIRVPPGEPKGKSRVLNYGLSISDGEYFCVYDADNQPEPHALRMLVEHAETTEDAVGAVGHVRTVNEKRNWLTRMISLEFQIFQLLMQSGRWLLFQTGSLTGTNMLLRRAALEELGGYDPYAIAEDAELTLRITQKGYLLPIVPESITWEQEPEHLKILIKQRTRWLQGNLYILEKMFSSLSFFKGKLLVHSLQQVLVYVVFWLFLIISNVWFVIGLLGIFQIQYSIPLLFMWYVAYVTYVSQLFSAQSVERTFTPTNIFISVIMYFTYAQLFTYLFIRSLILYLRAKSKKQVIGWDKTVRFKKDK | failed
MTVGASQQTSTIALHNDTGMLMSNLNIFKQPNAFYLIFSIEFWERFGFYGMQAILTVYMVKIMGMDESASFVLFGAFSALVYGFVAIGGWIGDKVIGTKRAITLGAIVMMVGYVLLGLSTADHPLVGPTLIYIAMGFITVGNGLFKANPSSLLAKIYPENDPRLDGAFTMYYMAINLGSFFSMIITPLVAIKMGYGMAFGVSAVGLAITVVNFLFCLRMLKGTGSPADLMPVNKMYLVLVAVGSIIASLVCSYLLQNLTLAHGILVVAGLFILGCYFKEAFSMSGIERAKMLVAFILMLQGVVFFVLYFQMPTSLNFFAINNVEHHIFGFDVAPEQFQALNPFWIMIASPILAATYGKLGDKLAMPFKFAFGMALCALSFLVLSWGTLFANEQGIISSNWLIASYAFQSIGELLVSGLGLAMVAQLVPQRMMGFAMGMWFLTSASAAVIAGWVASLTSTPANVSGATESLHIYGEVFAQIGYVTAGIAIVTFMIAPKLTRICRGESEPLELVTQ | failed
MPFIYRRRVQFYETDAQGIVHHSNYFRYFEEARGEFLRSKGFPYSKMRDMGLEVVLLNAYCEYKKPLFYDDVFEVHLNLEELSRFTFTFSYIVFKEDIAVAKANTKHCMVKNGKIVSIPKEVLEVLKD | not failed
MSYILIVTIAIVIFSLIFDFINGFHDTANAVATAVSTRALTPRRAILLAAVMNFIGALTFTGVAGTITKDIVDPFKLQHGLVVVLAAIIAAIIWNLITWLYGIPSSSSHALIGSIAGAAIASKGSFAVLHYQGFTKIIIVLIISPIIAFCVGYMMYTIVKIVFKNSNLTRTNRNFRFFQIFTAALQSFSHGTNDAQKSMGIITLALIVGNLQDGSNVEPQVWVKVVCATAMGLGTAVGGWKIIKTVGGNIMKIRPANGAAADISSALTIFVASSLHFPLSTTHVVSSSILGVGASNRAKGVKWSTAQRMVVTWVITLPISAVLAAIIYFIIHLFLK | failed
MMTALATVTGVERHGKQYEIDLSCEQQTSCSSCSSQKSCGTGVVTKAIGNKSLSWHLRTEKNVQVGQVVEIGFPESSLIKS | failed
MNISKEKVVDAISMVGYFVFAYVVMELLSINKYDWMMESGDSICSIPHQPLSNRILQAGVAALLLITPLFIALARNIFIKNRYKIAYYIVGILCIALYGGWLFLGRFALC | failed
MDIVTNKIVVEKYNFETTMEENQPFENKIELEVHEVEPVDGNVELMAKGKIFKITIPFLLVLENFRIDGRISRIIQLKDFFGQFSDLEAKDVEGLSNPLIDYIKRLTYDVTEIAFDEPGVSLDF | failed
GSSGSSGHADEVWPGLYLGDQDMANNRRELRRLGITHVLNASHSRWRGTPEAYEGLGIRYLGVEAHDSPAFDMSIHFQTAADFIHRALSQPGGKILVHCAVGVSRSATLVLAYLMLYHHLTLVEAIKKVKDHRGIIPNRGFLRQLLALDRRLRQGLEA | not failed
GQTFAGVIRGVQSYGFFVQIEALQVEGLVHVSSPKDDWYEYRSRQQRLIGRKNRRQFGLGDRVEVEIRNVDYYRQQIDLGVLPLP | failed
MSATGLEVFDRTLHKTHAWLKAIMEELGTEDRHKAYLALRAVLHALRDRLTVEEVAQLAAQLPMLVRGLYYEGWDPTGKPLKERHKEAFLAHVAEELKTPSGPAVDPEAATRAVFKVLSREISQGELEDVLGLLPKELRALWPQG | not failed
MKICLIDETGTGDGALSVLAARWGLEHDEDNLMALVLTPEHLELRKRDEPKLGGIFVDFVGGAMAHRRKFGGGRGEAVAKAVGIKGDYLPDVVDATAGLGRDAFVLASVGCRVRMLERNPVVAALLDDGLARGYADAEIGGWLQERLQLIHASSLTALTDITPRPQVVYLDPMFPHKQKSALVKKEMRVFQSLVGPDLDADGLLEPARLLATKRVVVKRPDYAPPLANVATPNAVVTKGHRFDIYAGTPVLEHHHHHH | not failed
MVEVYRLTKRHLDGAKSESALLNQIKIFSTCVGHGVGTIDFSEKVLEIPPAEFEAILQNGGEYLRFKLGNLSRYFEVEVFPEHAAKLLPEMMECPFKKVLEELREGYLVLRKDFKHA | failed
MKTLHVQTASSSYPVFIGQGIRKKACELLTSLNRPLTRIMFVTDEEVDRLYGDEMLHLLQEKWPVKKVTVPSGEQAKSMDMYTKLQSEAIRFHMDRSSCIIAFGGGVVGDLAGFVAATFMRGIDFIQMPTTLLAHDSAVGGKVAVNHPLGKNLIGAFYQPKAVLYDTDFLRSLPEKELRSGMAEVIKHAFIYDRAFLEELLNIHSLRDITNDQLNDMIFKGISIKASVVQQDEKEEGIRAYLNFGHTLGHAVEAEYGYGQITHGDAVALGMQFALYISEKTVGCEMDRKRLVSWLKSLGYPSQIRKETETSVLLNRMMNDKKTRGGKIQFIVLNELGKVADHTFSRNELESWLNKWRLEETS | failed
MSEQPSSVSGVKKVAIIPEIHISAPVLAKIVSYVAEESVDALKPFVKAGPLFKSAVYSKETLSCVRLDKSRYYMWWSTTHSIYYHFFTKSLEAKNPHALNAVLYKPIAYENFAAECYRATLWAELYGEYEA | failed
MKFWRPGITGKLFLAIFATCIVLLISMHWAVRISFERGFIDYIKHGNEQRLQLLSDALGEQYAQHGNWRFLRNNDRFVFQILRSFEHDNSEDKPGPGMPPHGWRTQFWVVDQNNKVLVGPRAPIPPDGTRRPILVNGAEVGAVIASPVERLTRNTDINFDKQQRQTSWLIVALATLLAALATFLLARGLLAPVKRLVDGTHKLAAGDFTTRVTPTSEDELGKLAQDFNQLASTLEKNQQMRRDFMADISHELRTPLAVLRGELEAIQDGVRKFTPETVASLQAEVGTLTKLVDDLHQLSMSDEGALAYQKAPVDLIPLLEVAGGAFRERFASRGLKLQFSLPDSITVFGDRDRLMQLFNNLLENSLRYTDSGGSLQISAGQRDKTVRLTFADSAPGVSDDQLQKLFERFYRTEVPATVPAGSGLGLAICLNIVEAHNGRIIAAHSPFGGVSITVELPLERDLQREV | failed
MSWLLVIAAGFLEVVWASGLKHADSFVDWLMIFVLIAVSFIMLIRSYRNIPMASAYTVFVGIGTAGTYVTGIFMGETFSGGQIFFLIVLLGGIIGMKMFTKENNAQSGGDE | failed
MFKVPKQSYTAEFKAAAVQRVKDGQGVGAVARELSVSEQTLRNWMKAEQAGKLGGAGAKVVTPEQMELSRLRAENKRLQMELEIAKKAAAYFAKDLL | failed
